Assay results taken from article PMC3035472.

Target: sigma A (primary sigma factor), wild type, refolded from inclusion bodies (Bacillus subtilis, UniProt P06224 1-371)
Test: EMSA

Chain of sigma A (primary sigma factor), wild type, refolded from inclusion bodies (P06224 whole entry): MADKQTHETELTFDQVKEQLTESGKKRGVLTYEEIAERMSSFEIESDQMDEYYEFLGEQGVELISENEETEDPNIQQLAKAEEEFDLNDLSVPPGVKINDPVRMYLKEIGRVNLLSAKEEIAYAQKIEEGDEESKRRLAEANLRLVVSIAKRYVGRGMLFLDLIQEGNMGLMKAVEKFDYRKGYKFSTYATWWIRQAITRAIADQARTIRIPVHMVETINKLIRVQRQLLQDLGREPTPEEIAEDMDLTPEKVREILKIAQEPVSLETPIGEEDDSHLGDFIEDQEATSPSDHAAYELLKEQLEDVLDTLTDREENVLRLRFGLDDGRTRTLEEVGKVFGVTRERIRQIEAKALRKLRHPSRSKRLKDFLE

B1: tgbp3 cDNA fragment (non-promoter) (dsDNA)
DNA 1: AGACTACCATGGCTCTAAACACTGACACACTATGCATCATTCTGTTCATACTAATATTAGGCATCCTATATAATATACTTCAACAGCATCTGCCCCCACCATGTGAAATAATAATAAACGGGCACACTATATCCATTAGGGGCAACTGCTACCACACCACCTCCAGCCTCGAGCACCAC
DNA 2: GTGGTGCTCGAGGCTGGAGGTGGTGTGGTAGCAGTTGCCCCTAATGGATATAGTGTGCCCGTTTATTATTATTTCACATGGTGGGGGCAGATGCTGTTGAAGTATATTATATAGGATGCCTAATATTAGTATGAACAGAATGATGCATAGTGTGTCAGTGTTTAGAGCCATGGTAGTCT
  binding result: binds
